Measurements taken from patent publication US20240132578A1.

Experiments:
Assay in all cases: cell-based or functional assay
[1] = molecular target: HIV-1 Env of isolate 93IN905 (HIV-1)
[2] = molecular target: HIV-1 Env of isolate 93MW959 (HIV-1)
[3] = molecular target: HIV-1 Env of isolate 97ZA012 (HIV-1)
[4] = molecular target: HIV-1 Env of isolate 98IN022 (HIV-1)
[5] = molecular target: HIV-1 Env of isolate JRCSF (HIV-1) (UniProt P20871)
[6] = molecular target: HIV-1 Env of isolate MGRM-Chronic-B-010 (HIV-1)
[7] = molecular target: HIV-1 Env of isolate MGRM-Chronic-B-011 (HIV-1)
[8] = molecular target: HIV-1 Env of isolate MGRM-Chronic-B-012 (HIV-1)
[9] = molecular target: HIV-1 Env of isolate MGRM-Chronic-B-017 (HIV-1)
[10] = molecular target: HIV-1 Env of isolate MGRM-Chronic-B-018 (HIV-1)
[11] = molecular target: HIV-1 Env of isolate MGRM-Chronic-B-020 (HIV-1)
[12] = molecular target: HIV-1 Env of isolate MGRM-Chronic-B-023 (HIV-1)
[13] = molecular target: HIV-1 Env of isolate MGRM-Chronic-B-024 (HIV-1)
[14] = molecular target: HIV-1 Env of isolate NL43 (HIV-1)
[15] = molecular target: HIV-1 Env of isolate PVO.4 (HIV-1)
[16] = molecular target: HIV-1 Env of isolate QH0692.42 (HIV-1)
[17] = molecular target: HIV-1 Env of isolate SC422661.8 (HIV-1)
[18] = molecular target: HIV-1 Env of isolate SF162 (HIV-1) (UniProt P19550)
[19] = molecular target: HIV-1 Env of isolate THR0.18 (HIV-1)
[20] = molecular target: HIV-1 Env of isolate TRJ04551.58 (HIV-1)
[21] = molecular target: HIV-1 Env of isolate TRO.11 (HIV-1)
[22] = molecular target: HIV-1 Env of isolate VLGCB3 (HIV-1)
[23] = molecular target: HIV-1 Env of pseudovirus MGRM-D-021 (HIV-1)
[24] = molecular target: HIV-1 Env of pseudovirus MGRM-F1-010 (HIV-1)
[25] = molecular target: HIV-1 Env of pseudovirus MGRM-F1-013 (HIV-1)

Sequence of PGT-142 (4995_E20) (antibody) (VH): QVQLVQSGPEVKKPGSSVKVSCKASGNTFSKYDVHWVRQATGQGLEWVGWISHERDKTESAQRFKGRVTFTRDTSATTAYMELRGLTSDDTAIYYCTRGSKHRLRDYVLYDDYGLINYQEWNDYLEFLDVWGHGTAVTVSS
Sequence of PGT-142 (4995_E20) (antibody) (VL): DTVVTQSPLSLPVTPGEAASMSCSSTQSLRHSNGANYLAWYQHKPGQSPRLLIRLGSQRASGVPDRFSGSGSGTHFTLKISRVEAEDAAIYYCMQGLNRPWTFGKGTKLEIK
Sequence of PGT-144 (4970_K22) (antibody) (VH): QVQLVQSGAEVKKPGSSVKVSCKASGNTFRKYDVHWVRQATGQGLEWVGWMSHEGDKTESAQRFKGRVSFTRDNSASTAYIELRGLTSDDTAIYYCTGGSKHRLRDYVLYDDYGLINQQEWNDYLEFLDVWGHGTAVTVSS
Sequence of PGT-144 (4970_K22) (antibody) (VL): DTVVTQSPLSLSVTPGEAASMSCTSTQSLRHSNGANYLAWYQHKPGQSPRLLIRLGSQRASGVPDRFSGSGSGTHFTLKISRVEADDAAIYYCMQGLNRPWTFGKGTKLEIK
Sequence of PGT-141 (4964_G22; 4993_K13) (antibody) (VH): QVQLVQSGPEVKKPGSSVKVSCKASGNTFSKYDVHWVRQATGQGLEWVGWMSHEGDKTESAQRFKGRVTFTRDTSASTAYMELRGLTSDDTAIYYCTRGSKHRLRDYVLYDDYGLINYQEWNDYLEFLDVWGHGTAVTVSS
Sequence of PGT-145 (4995_P16) (antibody) (VH): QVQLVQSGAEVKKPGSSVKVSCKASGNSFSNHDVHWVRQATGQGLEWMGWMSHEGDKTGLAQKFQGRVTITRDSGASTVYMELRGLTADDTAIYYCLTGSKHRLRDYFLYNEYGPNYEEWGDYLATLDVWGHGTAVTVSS
Sequence of PGT-145 (4995_P16) (antibody) (VL): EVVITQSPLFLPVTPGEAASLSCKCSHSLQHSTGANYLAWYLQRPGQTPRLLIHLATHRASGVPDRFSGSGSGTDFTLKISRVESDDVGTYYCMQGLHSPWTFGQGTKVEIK

| Substance | IC50, pseudovirus neutralization [1] | IC50, pseudovirus neutralization [2] | IC50, pseudovirus neutralization [3] | IC50, pseudovirus neutralization [4] | IC50, pseudovirus neutralization [5] | IC50, pseudovirus neutralization [6] | IC50, pseudovirus neutralization [7] | IC50, pseudovirus neutralization [8] | IC50, pseudovirus neutralization [9] | IC50, pseudovirus neutralization [10] | IC50, pseudovirus neutralization [11] | IC50, pseudovirus neutralization [12] | IC50, pseudovirus neutralization [13] | IC50, pseudovirus neutralization [14] | IC50, pseudovirus neutralization [15] | IC50, pseudovirus neutralization [16] | IC50, pseudovirus neutralization [17] | IC50, pseudovirus neutralization [18] | IC50, pseudovirus neutralization [19] | IC50, pseudovirus neutralization [20] | further results |
| --- | --- | --- | --- | --- | --- | --- | --- | --- | --- | --- | --- | --- | --- | --- | --- | --- | --- | --- | --- | --- | --- |
| PGT-142 (4995_E20) (antibody) | 0.001 µg/mL | 0.001 µg/mL | > 50 µg/mL | 0.001 µg/mL | 0.01 µg/mL | > 50 µg/mL | 0.994 µg/mL | > 50 µg/mL | 0.076 µg/mL | 0.323 µg/mL | > 50 µg/mL | 0.486 µg/mL | 0.005 µg/mL | > 50 µg/mL | 0.066 µg/mL | > 50 µg/mL | 3.15 µg/mL | > 50 µg/mL | 0.012 µg/mL | > 50 µg/mL | IC50, pseudovirus neutralization [21]: 0.27 µg/mL; IC50, pseudovirus neutralization [22]: > 50 µg/mL; IC50, pseudovirus neutralization [23]: > 50 µg/mL; IC50, pseudovirus neutralization [24]: > 50 µg/mL; IC50, pseudovirus neutralization [25]: 0.023 µg/mL |
| PGT-144 (4970_K22) (antibody) | 0.132 µg/mL | 0.332 µg/mL | > 50 µg/mL | 0.171 µg/mL | 0.149 µg/mL | > 50 µg/mL | 5.64 µg/mL | > 50 µg/mL | 0.712 µg/mL | 2.4 µg/mL | > 50 µg/mL | > 50 µg/mL | 0.04 µg/mL | > 50 µg/mL | 0.535 µg/mL | > 50 µg/mL | > 50 µg/mL | > 50 µg/mL | 0.029 µg/mL | > 50 µg/mL | IC50, pseudovirus neutralization [21]: 4.73 µg/mL; IC50, pseudovirus neutralization [22]: > 50 µg/mL; IC50, pseudovirus neutralization [23]: > 50 µg/mL; IC50, pseudovirus neutralization [24]: > 50 µg/mL; IC50, pseudovirus neutralization [25]: 0.509 µg/mL |
| PGT-141 (4964_G22; 4993_K13) (antibody) | 0.001 µg/mL | 0.003 µg/mL | > 50 µg/mL | 0.001 µg/mL | 0.009 µg/mL | > 50 µg/mL | 2.24 µg/mL | > 50 µg/mL | 0.147 µg/mL | 0.572 µg/mL | > 50 µg/mL | 0.318 µg/mL | 0.011 µg/mL | > 50 µg/mL | 0.113 µg/mL | > 50 µg/mL | 1.66 µg/mL | > 50 µg/mL | 0.007 µg/mL | > 50 µg/mL | IC50, pseudovirus neutralization [21]: 0.383 µg/mL; IC50, pseudovirus neutralization [22]: > 50 µg/mL; IC50, pseudovirus neutralization [23]: > 50 µg/mL; IC50, pseudovirus neutralization [24]: > 50 µg/mL; IC50, pseudovirus neutralization [25]: 0.043 µg/mL |
| PGT-145 (4995_P16) (antibody) | 0.002 µg/mL | 1.2 µg/mL | 0.915 µg/mL | 0.005 µg/mL | 0.002 µg/mL | > 50 µg/mL | 0.206 µg/mL | 9.66 µg/mL | 0.054 µg/mL | 0.013 µg/mL | > 50 µg/mL | 0.009 µg/mL | 0.018 µg/mL | 0.006 µg/mL | 0.299 µg/mL | > 50 µg/mL | 0.079 µg/mL | > 50 µg/mL | 0.013 µg/mL | > 50 µg/mL | IC50, pseudovirus neutralization [21]: 0.044 µg/mL; IC50, pseudovirus neutralization [22]: > 50 µg/mL; IC50, pseudovirus neutralization [23]: > 50 µg/mL; IC50, pseudovirus neutralization [24]: 3.32 µg/mL; IC50, pseudovirus neutralization [25]: 0.402 µg/mL |
